From US20150299281A1 (ZEALAND PHARMA A S, published 2015)
Square brackets hold non-standard residues; d marks the D form. 1Nal = N[C@@H](Cc1cccc2ccccc12)C(=O)O; Aib = CC(C)(N)C(=O)O

T1: human GIP receptor (human, UniProt P48546 22-466)
T1 sequence (looked up): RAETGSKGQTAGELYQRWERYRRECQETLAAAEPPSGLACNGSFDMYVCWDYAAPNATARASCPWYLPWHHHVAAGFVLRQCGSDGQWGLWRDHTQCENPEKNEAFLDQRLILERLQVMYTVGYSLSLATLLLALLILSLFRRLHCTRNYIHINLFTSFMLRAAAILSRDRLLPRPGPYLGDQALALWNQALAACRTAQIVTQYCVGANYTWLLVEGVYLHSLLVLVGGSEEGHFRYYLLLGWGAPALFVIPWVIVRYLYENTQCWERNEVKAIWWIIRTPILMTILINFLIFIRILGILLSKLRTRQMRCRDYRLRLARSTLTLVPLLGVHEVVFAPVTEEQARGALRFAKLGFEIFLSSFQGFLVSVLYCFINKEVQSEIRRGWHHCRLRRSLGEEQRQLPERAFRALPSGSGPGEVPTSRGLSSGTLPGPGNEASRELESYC


How the values were obtained:
human GLP-1 receptor = human GLP-1 receptor (human, UniProt P43220 24-463); test: cell-based or functional assay
human GIP receptor = biological target: T1, human GIP receptor; test: cell-based or functional assay

| Binder | EC50, cAMP induction in HEK293 cells expressing human GLP-1 R (human GLP-1 receptor) [nM] | EC50, cAMP induction in HEK293 cells expressing human GIP R (human GIP receptor) [nM] |
| --- | --- | --- |
| H-Y[Aib]EGTFTSDYSIYLDKKAQRAFVNWLLAYG[1Nal]LDF-NH2 (SMILES CC[C@H](C)[C@H](NC(=O)[C@H](CO)NC(=O)[C@H](Cc1ccc(O)cc1)NC(=O)[C@H](CC(=O)O)NC(=O)[C@H](CO)NC(=O)[C@@H](NC(=O)[C@H](Cc1ccccc1)NC(=O)[C@@H](NC(=O)CNC(=O)[C@H](CCC(=O)O)NC(=O)C(C)(C)NC(=O)[C@@H](N)Cc1ccc(O)cc1)[C@@H](C)O)[C@@H](C)O)C(=O)N[C@@H](Cc1ccc(O)cc1)C(=O)N[C@@H](CC(C)C)C(=O)N[C@@H](CC(=O)O)C(=O)N[C@@H](CCCCN)C(=O)N[C@@H](CCCCN)C(=O)N[C@@H](C)C(=O)N[C@@H](CCC(N)=O)C(=O)N[C@@H](CCCNC(=N)N)C(=O)N[C@@H](C)C(=O)N[C@@H](Cc1ccccc1)C(=O)N[C@H](C(=O)N[C@@H](CC(N)=O)C(=O)N[C@@H](Cc1c[nH]c2ccccc12)C(=O)N[C@@H](CC(C)C)C(=O)N[C@@H](CC(C)C)C(=O)N[C@@H](C)C(=O)N[C@@H](Cc1ccc(O)cc1)C(=O)NCC(=O)N[C@@H](Cc1cccc2ccccc12)C(=O)N[C@@H](CC(C)C)C(=O)N[C@@H](CC(=O)O)C(=O)N[C@@H](Cc1ccccc1)C(N)=O)C(C)C) [Compound 26] | 0.39 | 0.8 |
| H-Y[Aib]EGTFTSDYSIALDKIAQRAFVNWLVA[Aib]K-NH2 (SMILES CC[C@H](C)[C@H](NC(=O)[C@H](CCCCN)NC(=O)[C@H](CC(=O)O)NC(=O)[C@H](CC(C)C)NC(=O)[C@H](C)NC(=O)[C@@H](NC(=O)[C@H](CO)NC(=O)[C@H](Cc1ccc(O)cc1)NC(=O)[C@H](CC(=O)O)NC(=O)[C@H](CO)NC(=O)[C@@H](NC(=O)[C@H](Cc1ccccc1)NC(=O)[C@@H](NC(=O)CNC(=O)[C@H](CCC(=O)O)NC(=O)C(C)(C)NC(=O)[C@@H](N)Cc1ccc(O)cc1)[C@@H](C)O)[C@@H](C)O)[C@@H](C)CC)C(=O)N[C@@H](C)C(=O)N[C@@H](CCC(N)=O)C(=O)N[C@@H](CCCNC(=N)N)C(=O)N[C@@H](C)C(=O)N[C@@H](Cc1ccccc1)C(=O)N[C@H](C(=O)N[C@@H](CC(N)=O)C(=O)N[C@@H](Cc1c[nH]c2ccccc12)C(=O)N[C@@H](CC(C)C)C(=O)N[C@H](C(=O)N[C@@H](C)C(=O)NC(C)(C)C(=O)N[C@@H](CCCCN)C(N)=O)C(C)C)C(C)C) [Compound 3] | 0.022 | 0.015 |
| H-Y[Aib]EGTFTSDYSIYLDKKAEKAFVNWLLA[Aib]K-NH2 (SMILES CC[C@H](C)[C@H](NC(=O)[C@H](CO)NC(=O)[C@H](Cc1ccc(O)cc1)NC(=O)[C@H](CC(=O)O)NC(=O)[C@H](CO)NC(=O)[C@@H](NC(=O)[C@H](Cc1ccccc1)NC(=O)[C@@H](NC(=O)CNC(=O)[C@H](CCC(=O)O)NC(=O)C(C)(C)NC(=O)[C@@H](N)Cc1ccc(O)cc1)[C@@H](C)O)[C@@H](C)O)C(=O)N[C@@H](Cc1ccc(O)cc1)C(=O)N[C@@H](CC(C)C)C(=O)N[C@@H](CC(=O)O)C(=O)N[C@@H](CCCCN)C(=O)N[C@@H](CCCCN)C(=O)N[C@@H](C)C(=O)N[C@@H](CCC(=O)O)C(=O)N[C@@H](CCCCN)C(=O)N[C@@H](C)C(=O)N[C@@H](Cc1ccccc1)C(=O)N[C@H](C(=O)N[C@@H](CC(N)=O)C(=O)N[C@@H](Cc1c[nH]c2ccccc12)C(=O)N[C@@H](CC(C)C)C(=O)N[C@@H](CC(C)C)C(=O)N[C@@H](C)C(=O)NC(C)(C)C(=O)N[C@@H](CCCCN)C(N)=O)C(C)C) [Compound 27] | 0.074 | 0.3 |
